Where two headings read alike, the source gives them in different places.

The Kd is the free concentration of one partner at which half of the binding sites on the other are occupied at equilibrium, for simple one-to-one binding. Low values mean a tighter complex, high ones a looser complex. The term koff denotes a measure of how fast the partners let go of each other. The term kon denotes a measure of how fast the partners come together. A word on the stoichiometry N: it is the number of molecules, sites or subunits per partner or assembly.

Experiment [1] has as its target apo-transferrin (iron-unbound transferrin) (human) (UniProt P02787). The experiment is described as follows: SPR.
Experiment [2] shares this target.
Another experiment addresses human α-thrombin (human) (UniProt P00734).
Experiment [3] deals with T1, apo-transferrin (iron-unbound transferrin) (human, UniProt P02787 20-698). In words: SPR. (In general: SPR reads the build-up and loss of mass on a sensor chip optically.)
Experiment [4] deals with T1, apo-transferrin (iron-unbound …). The experiment is described as follows: SPR. The source holds these as a separate data set.
For experiment [5] the target is unchanged. The experiment is described as follows: SPR. This is another data set of the same source.
For experiment [6] the target is unchanged.

On to FXII (natural protein), for which, in experiment [1], the Kd worked out at 40 nM, the off-rate (koff) is 0.0012 s⁻¹ and the on-rate constant (kon) is 30000 M⁻¹ s⁻¹.
For the molecule “human α-thrombin (from UniProt P00734) (enzyme)”, the Kd in experiment [1] was determined as 7.7 nM. Further, the stoichiometry N (Tf per thrombin) in experiment [2] stood at 1.
“apo-transferrin (iron-unbound transferrin) (from UniProt P02787 20-698) (natural protein)” displayed an enzymatic activity of thrombin on a chromogenic substrate, Tf at 0.2, 1 and 5 μM in the experiment with human α-thrombin (human) of 1.8 fold.
In experiment [3], RIGKHSRTRYERNIEK [TH16] came in with an equilibrium dissociation constant (Kd) of 97 nM, an off-rate constant (koff) of 0.0003 s⁻¹ and an on-rate (kon) of 3100 M⁻¹ s⁻¹.
In experiment [3], RRNHSCEPCQTLAVRSYR [FX18] displayed a Kd of 143 nM, a dissociation rate constant (koff) of 0.0004 s⁻¹ and a kon of 2800 M⁻¹ s⁻¹.

B1: fibrinogen (complex)
chain 1: ADSGEGDFLAEGGGVRGPRVVERHQSACKDSDWPFCSDEDWNYKCPSGCRMKGLIDEVNQDFTNRINKLKNSLFEYQKNNKDSHSLTTNIMEILRGDFSSANNRDNTYNRVSEDLRSRIEVLKRKVIEKVQHIQLLQKNVRAQLVDMKRLEVDIDIKIRSCRGSCSRALAREVDLKDYEDQQKQLEQVIAKDLLPSRDRQHLPLIKMKPVPDLVPGNFKSQLQKVPPEWKALTDMPQMRMELERPGGNEITRGGSTSYGTGSETESPRNPSSAGSWNSGSSGPGSTGNRNPGSSGTGGTATWKPGSSGPGSTGSWNSGSSGTGSTGNQNPGSPRPGSTGTWNPGSSERGSAGHWTSESSVSGSTGQWHSESGSFRPDSPGSGNARPNNPDWGTFEEVSGNVSPGTRREYHTEKLVTSKGDKELRTGKEKVTSGSTTTTRRSCSKTVTKTVIGPDGHKEVTKEVVTSEDGSDCPEAMDLGTLSGIGTLDGFRHRHPDEAAFFDTASTGKTFPGFFSPMLGEFVSETESRGSESGIFTNTKESSSHHPGIAEFPSRGKSSSYSKQFTSSTSYNRGDSTFESKSYKMADEAGSEADHEGTHSTKRGHAKSRPVRGIHTSPLGKPSLSP
chain 2: QGVNDNEEGFFSARGHRPLDKKREEAPSLRPAPPPISGGGYRARPAKAAATQKKVERKAPDAGGCLHADPDLGVLCPTGCQLQEALLQQERPIRNSVDELNNNVEAVSQTSSSSFQYMYLLKDLWQKRQKQVKDNENVVNEYSSELEKHQLYIDETVNSNIPTNLRVLRSILENLRSKIQKLESDVSAQMEYCRTPCTVSCNIPVVSGKECEEIIRKGGETSEMYLIQPDSSVKPYRVYCDMNTENGGWTVIQNRQDGSVDFGRKWDPYKQGFGNVATNTDGKNYCGLPGEYWLGNDKISQLTRMGPTELLIEMEDWKGDKVKAHYGGFTVQNEANKYQISVNKYRGTAGNALMDGASQLMGENRTMTIHNGMFFSTYDRDNDGWLTSDPRKQCSKEDGGGWWYNRCHAANPNGRYYWGGQYTWDMAKHGTDDGVVWMNWKGSWYSMRKMSMKIRPFFPQQ
chain 3: YVATRDNCCILDERFGSYCPTTCGIADFLSTYQTKVDKDLQSLEDILHQVENKTSEVKQLIKAIQLTYNPDESSKPNMIDAATLKSRKMLEEIMKYEASILTHDSSIRYLQEIYNSNNQKIVNLKEKVAQLEAQCQEPCKDTVQIHDITGKDCQDIANKGAKQSGLYFIKPLKANQQFLVYCEIDGSGNGWTVFQKRLDGSVDFKKNWIQYKEGFGHLSPTGTTEFWLGNEKIHLISTQSAIPYALRVELEDWNGRTSTADYAMFKVGPEADKYRLTYAYFAGGDAGDAFDGFDFGDDPSDKFFTSHNGMQFSTWDNDNDKFEGNCAEQDGSGWWMNKCHAGHLNGVYYQGGTYSKASTPNGYDNGIIWATWKTRWYSMKKTTMKIIPFNRLTIGEGQQHHLGGAKQAGDV
On to B1, for which the “stoichiometry N” value in experiment [4] stood at 4 apo-Tf per fibrinogen.

B2: human α-FXIIa (enzyme)
chain 1: IPPWEAPKEHKYKAEEHTVVLTVTGEPCHFPFQYHRQLYHKCTHKGRPGPQPWCATTPNFDQDQRWGYCLEPKKVKDHCSKHSPCQKGGTCVNMPSGPHCLCPQHLTGNHCQKEKCFEPQLLRFFHKNEIWYRTEQAAVARCQCKGPDAHCQRLASQACRTNPCLHGGRCLEVEGHRLCHCPVGYTGAFCDVDTKASCYDGRGLSYRGLARTTLSGAPCQPWASEATYRNVTAEQARNWGLGGHAFCRNPDNDIRPWCFVLNRDRLSWEYCDLAQCQTPTQAAPPTPVSPRLHVPLMPAQPAPPKPQPTTRTPPQSQTPGALPAKREQPPSLTRNGPLSCGQRLRKSLSSMTR
chain 2: VVGGLVALRGAHPYIAALYWGHSFCAGSLIAPCWVLTAAHCLQDRPAPEDLTVVLGQERRNHSCEPCQTLAVRSYRLHEAFSPVSYQHDLALLRLQEDADGSCALLSPYVQPVCLPSGAARPSETTLCQVAGWGHQFEGAEEYASFLQEAQVPFLSLERCSAPDVHGSSILPGMLCAGFLEGGTDACQGDSGGPLVCEDQAAERRLTLQGIISWGSGCGDRNKPGVYTDVAYYLAWIREHTVS
As for B2, in experiment [5], the Kd amounted to 13.9 nM, the koff came out at 0.0025 s⁻¹ and the on-rate (kon) turned out to be 180000 M⁻¹ s⁻¹. In addition, the “stoichiometry N” value in experiment [6] was 1 Tf per FXIIa.

The values are drawn from doi:10.1101/646075 (bioRxiv, 2019).
